Assay results published in the supplement of paper PMC9112550, “Optimization of the antimicrobial peptide Bac7 by deep mutational scanning” (BMC Biology, 2022).

System: Escherichia coli TOP10
Assay: shrunken log2 fold change of peptide-encoding DNA abundance (4.5 h post-induction vs induction); higher = less antimicrobial activity (less host growth inhibition)
Details: time post-induction: 4.5 h; library: site-saturation at positions 5, 18, 19, 20
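Note: peptides expressed intracellularly from a pBAD plasmid library in pooled LB shake-flask culture, induced with 0.3% L-arabinose, DNA abundance read by NGS, three biological replicates, DESeq2 with apeglm shrinkage.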

Row | Sequence | shrunken log2 fold change
1 | RRIRVRPPRLPRPRPRPWAMPRP | -0.0382
2 | RRIRVRPPRLPRPRPRPWDAPRP | -0.0951
3 | RRIRVRPPRLPRPRPRPWDCPRP | -0.0389
4 | RRIRVRPPRLPRPRPRPWDEPRP | -0.334
5 | RRIRVRPPRLPRPRPRPWDNPRP | 0.0145
6 | RRIRVRPPRLPRPRPRPWEWPRP | 0.0039
7 | RRIRVRPPRLPRPRPRPWFYPRP | -0.373
8 | RRIRVRPPRLPRPRPRPWHGPRP | -0.121
9 | RRIRVRPPRLPRPRPRPWITPRP | -1.08
10 | RRIRVRPPRLPRPRPRPWKIPRP | -0.0261
11 | RRIRVRPPRLPRPRPRPWKNPRP | 0.0224
12 | RRIRVRPPRLPRPRPRPWLDPRP | 0.183
13 | RRIRVRPPRLPRPRPRPWLFPRP | 0.141
14 | RRIRVRPPRLPRPRPRPWLMPRP | -0.136
15 | RRIRVRPPRLPRPRPRPWLPPRP | -0.59
16 | RRIRVRPPRLPRPRPRPWNIPRP | -0.582
17 | RRIRVRPPRLPRPRPRPWQKPRP | 0.015
18 | RRIRVRPPRLPRPRPRPWSTPRP | 0.00921
19 | RRIRVRPPRLPRPRPRPWTYPRP | -1.3
20 | RRIRVRPPRLPRPRPRPWVGPRP | -0.0497
21 | RRIRVRPPRLPRPRPRPWVPPRP | -0.101
22 | RRIRVRPPRLPRPRPRPWWGPRP | 0.0115
23 | RRIRVRPPRLPRPRPRPWWHPRP | 0.0994
24 | RRIRVRPPRLPRPRPRPWYQPRP | -0.197
25 | RRIRVRPPRLPRPRPRPWYVPRP | -0.971

Row | Sequence | shrunken log2 fold change
26 | RRIRVRPPRLPRPRPRPYCHPRP | -0.0116
27 | RRIRVRPPRLPRPRPRPYDFPRP | -0.00884
28 | RRIRVRPPRLPRPRPRPYDLPRP | -0.121
29 | RRIRVRPPRLPRPRPRPYEEPRP | -0.128
30 | RRIRVRPPRLPRPRPRPYFEPRP | -0.26
31 | RRIRVRPPRLPRPRPRPYFYPRP | -0.474
32 | RRIRVRPPRLPRPRPRPYGDPRP | -0.168
33 | RRIRVRPPRLPRPRPRPYHTPRP | -0.15
34 | RRIRVRPPRLPRPRPRPYHWPRP | -0.633
35 | RRIRVRPPRLPRPRPRPYHYPRP | -1.93
36 | RRIRVRPPRLPRPRPRPYINPRP | -0.724
37 | RRIRVRPPRLPRPRPRPYISPRP | -0.0821
38 | RRIRVRPPRLPRPRPRPYKSPRP | -0.492
39 | RRIRVRPPRLPRPRPRPYMEPRP | -0.16
40 | RRIRVRPPRLPRPRPRPYMFPRP | -0.552
41 | RRIRVRPPRLPRPRPRPYMSPRP | -0.583
42 | RRIRVRPPRLPRPRPRPYQNPRP | -0.141
43 | RRIRVRPPRLPRPRPRPYRDPRP | -0.278
44 | RRIRVRPPRLPRPRPRPYRQPRP | -0.479
45 | RRIRVRPPRLPRPRPRPYRWPRP | -0.355
46 | RRIRVRPPRLPRPRPRPYSCPRP | -0.00112
47 | RRIRVRPPRLPRPRPRPYSQPRP | 0.0117
48 | RRIRVRPPRLPRPRPRPYTCPRP | -0.164
49 | RRIRVRPPRLPRPRPRPYTGPRP | -0.0211
50 | RRIRVRPPRLPRPRPRPYTKPRP | -0.868

Row | Sequence | shrunken log2 fold change
51 | RRIRVRPPRLPRPRPRPYVTPRP | 0.0974
52 | RRIRVRPPRLPRPRPRPYWWPRP | -0.208
53 | RRIRVRPPRLPRPRPRPYYHPRP | -0.877
54 | RRIRWRPPRLPRPRPRPAANPRP | -0.136
55 | RRIRWRPPRLPRPRPRPAAVPRP | 0.806
56 | RRIRWRPPRLPRPRPRPAAYPRP | 0.346
57 | RRIRWRPPRLPRPRPRPACKPRP | -0.0942
58 | RRIRWRPPRLPRPRPRPACSPRP | 0.528
59 | RRIRWRPPRLPRPRPRPACWPRP | 0.517
60 | RRIRWRPPRLPRPRPRPADVPRP | -0.305
61 | RRIRWRPPRLPRPRPRPAFKPRP | -0.00397
62 | RRIRWRPPRLPRPRPRPAFMPRP | 0.0849
63 | RRIRWRPPRLPRPRPRPAIYPRP | -0.259
64 | RRIRWRPPRLPRPRPRPAKMPRP | 0.519
65 | RRIRWRPPRLPRPRPRPALHPRP | 0.277
66 | RRIRWRPPRLPRPRPRPANLPRP | -0.285
67 | RRIRWRPPRLPRPRPRPANQPRP | 0.559
68 | RRIRWRPPRLPRPRPRPANYPRP | -0.0848
69 | RRIRWRPPRLPRPRPRPAPGPRP | 0.634
70 | RRIRWRPPRLPRPRPRPARNPRP | 0.256
71 | RRIRWRPPRLPRPRPRPARSPRP | 0.252
72 | RRIRWRPPRLPRPRPRPASMPRP | -0.0478
73 | RRIRWRPPRLPRPRPRPATCPRP | 0.275
74 | RRIRWRPPRLPRPRPRPATKPRP | 0.273
75 | RRIRWRPPRLPRPRPRPATMPRP | 0.0187

Row | Sequence | shrunken log2 fold change
76 | RRIRWRPPRLPRPRPRPATWPRP | 0.152
77 | RRIRWRPPRLPRPRPRPAVTPRP | 0.599
78 | RRIRWRPPRLPRPRPRPAWDPRP | 1.05
79 | RRIRWRPPRLPRPRPRPAWLPRP | 0.61
80 | RRIRWRPPRLPRPRPRPCATPRP | 0.183
81 | RRIRWRPPRLPRPRPRPCCHPRP | -0.169
82 | RRIRWRPPRLPRPRPRPCCWPRP | 0.438
83 | RRIRWRPPRLPRPRPRPCDKPRP | -0.217
84 | RRIRWRPPRLPRPRPRPCFRPRP | 0.021
85 | RRIRWRPPRLPRPRPRPCHDPRP | 0.0415
86 | RRIRWRPPRLPRPRPRPCIKPRP | 0.0427
87 | RRIRWRPPRLPRPRPRPCKHPRP | -0.245
88 | RRIRWRPPRLPRPRPRPCLNPRP | 0.0137
89 | RRIRWRPPRLPRPRPRPCLTPRP | -0.00541
90 | RRIRWRPPRLPRPRPRPCMWPRP | -0.0796
91 | RRIRWRPPRLPRPRPRPCQPPRP | -0.118
92 | RRIRWRPPRLPRPRPRPCSAPRP | 0.0988
93 | RRIRWRPPRLPRPRPRPCSFPRP | 0.0624
94 | RRIRWRPPRLPRPRPRPCSHPRP | -0.264
95 | RRIRWRPPRLPRPRPRPCSIPRP | -0.134
96 | RRIRWRPPRLPRPRPRPCSYPRP | -0.0533
97 | RRIRWRPPRLPRPRPRPCWAPRP | 0.197
98 | RRIRWRPPRLPRPRPRPCYFPRP | -0.0204
99 | RRIRWRPPRLPRPRPRPCYQPRP | 0.0103
100 | RRIRWRPPRLPRPRPRPDAMPRP | 0.393

Row | Sequence | shrunken log2 fold change
101 | RRIRWRPPRLPRPRPRPDEIPRP | 0.0148
102 | RRIRWRPPRLPRPRPRPDGMPRP | 0.0134
103 | RRIRWRPPRLPRPRPRPDGSPRP | -0.0311
104 | RRIRWRPPRLPRPRPRPDHHPRP | -0.445
105 | RRIRWRPPRLPRPRPRPDHWPRP | 0.109
106 | RRIRWRPPRLPRPRPRPDHYPRP | -0.023
107 | RRIRWRPPRLPRPRPRPDICPRP | -0.0379
108 | RRIRWRPPRLPRPRPRPDIEPRP | -0.0323
109 | RRIRWRPPRLPRPRPRPDLEPRP | 0.974
110 | RRIRWRPPRLPRPRPRPDLGPRP | -0.135
111 | RRIRWRPPRLPRPRPRPDMDPRP | 0.0441
112 | RRIRWRPPRLPRPRPRPDNIPRP | -0.12
113 | RRIRWRPPRLPRPRPRPDPMPRP | 0.444
114 | RRIRWRPPRLPRPRPRPDRVPRP | 0.0957
115 | RRIRWRPPRLPRPRPRPDTRPRP | -0.0523
116 | RRIRWRPPRLPRPRPRPDYWPRP | 0.122
117 | RRIRWRPPRLPRPRPRPEAIPRP | 0.25
118 | RRIRWRPPRLPRPRPRPEEEPRP | 0.00738
119 | RRIRWRPPRLPRPRPRPEFFPRP | 0.54
120 | RRIRWRPPRLPRPRPRPEFPPRP | 0.0195
121 | RRIRWRPPRLPRPRPRPEGRPRP | 0.65
122 | RRIRWRPPRLPRPRPRPEHDPRP | -0.0282
123 | RRIRWRPPRLPRPRPRPEIYPRP | 0.21
124 | RRIRWRPPRLPRPRPRPEKNPRP | 0.686
125 | RRIRWRPPRLPRPRPRPEKVPRP | 0.115

Row | Sequence | shrunken log2 fold change
126 | RRIRWRPPRLPRPRPRPELMPRP | 0.0289
127 | RRIRWRPPRLPRPRPRPELYPRP | 0.541
128 | RRIRWRPPRLPRPRPRPEMRPRP | 2.09
129 | RRIRWRPPRLPRPRPRPEPDPRP | 0.901
130 | RRIRWRPPRLPRPRPRPEQLPRP | 0.00937
131 | RRIRWRPPRLPRPRPRPETKPRP | 0.285
132 | RRIRWRPPRLPRPRPRPETRPRP | 1.32
133 | RRIRWRPPRLPRPRPRPEVWPRP | 0.966
134 | RRIRWRPPRLPRPRPRPEWPPRP | 0.956
135 | RRIRWRPPRLPRPRPRPEYPPRP | 0.208
136 | RRIRWRPPRLPRPRPRPFDVPRP | -0.00233
137 | RRIRWRPPRLPRPRPRPFEAPRP | 0.253
138 | RRIRWRPPRLPRPRPRPFENPRP | -0.15
139 | RRIRWRPPRLPRPRPRPFFIPRP | -0.309
140 | RRIRWRPPRLPRPRPRPFFSPRP | -0.101
141 | RRIRWRPPRLPRPRPRPFHAPRP | 0.0472
142 | RRIRWRPPRLPRPRPRPFHEPRP | -0.0657
143 | RRIRWRPPRLPRPRPRPFHPPRP | -0.138
144 | RRIRWRPPRLPRPRPRPFIIPRP | -0.617
145 | RRIRWRPPRLPRPRPRPFKRPRP | 0.0707
146 | RRIRWRPPRLPRPRPRPFLEPRP | 0.0541
147 | RRIRWRPPRLPRPRPRPFLFPRP | 0.095
148 | RRIRWRPPRLPRPRPRPFMSPRP | -0.0321
149 | RRIRWRPPRLPRPRPRPFNVPRP | -0.114
150 | RRIRWRPPRLPRPRPRPFQAPRP | -0.222
